What was measured:
[1] = Coupled enzyme assay (ADH, with and without MSAD): hydratase and hydratase/decarboxylase activity and product profile of Cg10062 and variants; assay type: biochemical; settings: for Rate in the absence of MSAD / Rate in the presence of MSAD: ACA 0.5 mM, pH 8, enzyme final concentration differs per variant (0.025-1.50 mg mL^−1), rates not directly comparable; for Product Ratio (%) acetaldehyde / Product Ratio (%) malonate semialdehyde: from Cg10062 activity in the presence and absence of MSAD; for Product Ratio (%) acetaldehyde: * from non-enzymatic decarboxylation of malonate semialdehyde; for Product Ratio (%) malonate semialdehyde: ACA substrate, pH 8.0, 25° C.
Experimental: (§1) Steady-state kinetics were carried out using a Molecular Devices SpectraMax iD3 multi-mode microplate reader and Shimadzu UV2600 spectrophotometer. All assays were carried out in triplicate at 25° C. in 100 mM sodium phosphate pH 8.0 with a final volume of 200 μL, unless otherwise specified. The reduction of acetaldehyde by NADH-dependent alcohol dehydrogenase (ADH) was monitored by following the oxidation of NADH at 340 nm (ε=6220 M^−1 cm^−1).
(§2) All stock solutions, except ADH, required for the kinetics assays used for determining hydratase and hydratase/decarboxylase activities were prepared in 100 mM sodium phosphate pH 8.0. […] Stock solutions of ADH were prepared using deionized water, as recommended by the manufacturer. […] The final pH of each assay was 8.
(§3) The amount of enzyme used in each assay was varied in order to observe measurable activity. Thus, the rates obtained from this experiment were not used directly to compare the enzyme activity. These activities were only used for establishing the product profile of each enzyme. The ratios of MSA and acetaldehyde formed by each enzyme was determined by the coupled enzyme assay (FIG. 13), using the differences in rates in the presence and absence of MSAD (Table 10). […] All other components used for steady-state kinetics were identical to those used in the initial screening assays.

[2] = substrate: C#CC(=O)O; experiment: purified protein, by the assay type; assay type: biochemical, Corynebacterium glutamicum; settings: other: ACA, 100 mM sodium phosphate pH 8.0, 25 °C
Experimental: as §1, §2, §3

B1: Cg10062(E114N): Novel hydratase-only Cg10062 variant with E114N mutation, SEQ ID NO: 24 and 62 (protein)
chain: PTYTCWSQRIRISREAKQRIAEAITDAHHELAHAPKYLVQVIFNEVEPDSYFIAAQSASENHIWVQATIRSGRTEKQKEELLLRLTQEIALILGIPNEEVWVYITEIPGSNMTNYGRLLMEPGEEEKWFNSLPEGLRERLTELEGSSE
modifications: Cg10062(E114N) from Corynebacterium glutamicum codon-optimized for Escherichia coli
- Rate in the absence of MSAD [1]: no activity
- Rate in the presence of MSAD [1]: 67 µM/min
- Product Ratio (%) acetaldehyde [1]: <1* %
- Product Ratio (%) malonate semialdehyde [1]: >99%
- product of ACA hydration ([1]; in words): produces only malonic semialdehyde

B2: R73A: Cg10062 variant with R73A mutation, SEQ ID NO: 28 and 66 (protein)
chain: PTYTCWSQRIRISREAKQRIAEAITDAHHELAHAPKYLVQVIFNEVEPDSYFIAAQSASENHIWVQATIRSGATEKQKEELLLRLTQEIALILGIPNEEVWVYITEIPGSNMTEYGRLLMEPGEEEKWFNSLPEGLRERLTELEGSSE
modifications: Cg10062(R73A) from Corynebacterium glutamicum codon-optimized for Escherichia coli
- Rate in the absence of MSAD [1]: no activity
- Rate in the presence of MSAD [1]: no activity

B3: R70K: Cg10062 variant with R70K mutation, SEQ ID NO: 27 and 65 (protein)
chain: PTYTCWSQRIRISREAKQRIAEAITDAHHELAHAPKYLVQVIFNEVEPDSYFIAAQSASENHIWVQATIKSGRTEKQKEELLLRLTQEIALILGIPNEEVWVYITEIPGSNMTEYGRLLMEPGEEEKWFNSLPEGLRERLTELEGSSE
modifications: Cg10062(R70K) from Corynebacterium glutamicum codon-optimized for Escherichia coli
- Rate in the absence of MSAD [1]: no activity
- Rate in the presence of MSAD [1]: no activity

B4: H28A: Cg10062 variant with H28A mutation, SEQ ID NO: 25 and 63 (protein)
chain: PTYTCWSQRIRISREAKQRIAEAITDAAHELAHAPKYLVQVIFNEVEPDSYFIAAQSASENHIWVQATIRSGRTEKQKEELLLRLTQEIALILGIPNEEVWVYITEIPGSNMTEYGRLLMEPGEEEKWFNSLPEGLRERLTELEGSSE
modifications: Cg10062(H28A) from Corynebacterium glutamicum codon-optimized for Escherichia coli
- Rate in the absence of MSAD [1]: 4.5 µM/min
- Rate in the presence of MSAD [1]: 12 µM/min

B5: Cg10062(E114D-Y103F): Cg10062 double variant E114D-Y103F, SEQ ID NO: 33 and 71 (protein)
chain: PTYTCWSQRIRISREAKQRIAEAITDAHHELAHAPKYLVQVIFNEVEPDSYFIAAQSASENHIWVQATIRSGRTEKQKEELLLRLTQEIALILGIPNEEVWVFITEIPGSNMTDYGRLLMEPGEEEKWFNSLPEGLRERLTELEGSSE
modifications: Cg10062(E114D-Y103F) from Corynebacterium glutamicum codon-optimized for Escherichia coli
- Rate in the absence of MSAD [1]: no activity
- Rate in the presence of MSAD [1]: 39 µM/min
- Product Ratio (%) acetaldehyde [1]: <1* %
- Product Ratio (%) malonate semialdehyde [1]: >99%

B6: R70A: Cg10062 variant with R70A mutation, SEQ ID NO: 26 and 64 (protein)
chain: PTYTCWSQRIRISREAKQRIAEAITDAHHELAHAPKYLVQVIFNEVEPDSYFIAAQSASENHIWVQATIASGRTEKQKEELLLRLTQEIALILGIPNEEVWVYITEIPGSNMTEYGRLLMEPGEEEKWFNSLPEGLRERLTELEGSSE
modifications: Cg10062(R70A) from Corynebacterium glutamicum codon-optimized for Escherichia coli
- Rate in the absence of MSAD [1]: no activity
- Rate in the presence of MSAD [1]: no activity

B7: Y103A: Cg10062 variant with Y103A mutation, SEQ ID NO: 30 and 68 (protein)
chain: PTYTCWSQRIRISREAKQRIAEAITDAHHELAHAPKYLVQVIFNEVEPDSYFIAAQSASENHIWVQATIRSGRTEKQKEELLLRLTQEIALILGIPNEEVWVAITEIPGSNMTEYGRLLMEPGEEEKWFNSLPEGLRERLTELEGSSE
modifications: Cg10062(Y103A) from Corynebacterium glutamicum codon-optimized for Escherichia coli
- Rate in the absence of MSAD [1]: 16 µM/min
- Rate in the presence of MSAD [1]: 38 µM/min

B8: E114A: Cg10062 variant with E114A mutation, SEQ ID NO: 32 and 70 (protein)
chain: PTYTCWSQRIRISREAKQRIAEAITDAHHELAHAPKYLVQVIFNEVEPDSYFIAAQSASENHIWVQATIRSGRTEKQKEELLLRLTQEIALILGIPNEEVWVYITEIPGSNMTAYGRLLMEPGEEEKWFNSLPEGLRERLTELEGSSE
modifications: Cg10062(E114A) from Corynebacterium glutamicum codon-optimized for Escherichia coli
- Rate in the absence of MSAD [1]: 11 µM/min
- Rate in the presence of MSAD [1]: 15 µM/min

B9: Y103F: Cg10062 variant with Y103F mutation, SEQ ID NO: 31 and 69 (protein)
chain: PTYTCWSQRIRISREAKQRIAEAITDAHHELAHAPKYLVQVIFNEVEPDSYFIAAQSASENHIWVQATIRSGRTEKQKEELLLRLTQEIALILGIPNEEVWVFITEIPGSNMTEYGRLLMEPGEEEKWFNSLPEGLRERLTELEGSSE
modifications: Cg10062(Y103F) from Corynebacterium glutamicum codon-optimized for Escherichia coli
- Rate in the absence of MSAD [1]: 43 µM/min
- Rate in the presence of MSAD [1]: 65 µM/min

B10: Corynebacterium glutamicum Cg10062 variant E114Q, SEQ ID NO: 60 (Corynebacterium glutamicum ATCC 13032; E115Q) (protein)
chain: PTYTCWSQRIRISREAKQRIAEAITDAHHELAHAPKYLVQVIFNEVEPDSYFIAAQSASENHIWVQATIRSGRTEKQKEELLLRLTQEIALILGIPNEEVWVYITEIPGSNMTQYGRLLMEPGEEEKWFNSLPEGLRERLTELEGSSEENLYFQGLEHHHHHH
- Km [2]: 64 ± 12 µM
- kcat [2]: 0.66 ± 0.04 s⁻¹
- kcat/Km [2]: 10800 ± 2100 M⁻¹ s⁻¹

B11: Corynebacterium glutamicum Cg10062 variant E114D, SEQ ID NO: 61 (Corynebacterium glutamicum ATCC 13032; E115D) (protein)
chain: PTYTCWSQRIRISREAKQRIAEAITDAHHELAHAPKYLVQVIFNEVEPDSYFIAAQSASENHIWVQATIRSGRTEKQKEELLLRLTQEIALILGIPNEEVWVYITEIPGSNMTDYGRLLMEPGEEEKWFNSLPEGLRERLTELEGSSEENLYFQGLEHHHHHH
- Km [2]: 557 ± 62 µM
- kcat [2]: 1.12 ± 0.05 s⁻¹
- kcat/Km [2]: 2000 ± 200 M⁻¹ s⁻¹
